Target: human HP1 CSDα (109–185) (human, UniProt P45973 109-185)
Assay: other fluorescence titration

Sequence of human HP1 CSDα (109–185) (P45973 109-185): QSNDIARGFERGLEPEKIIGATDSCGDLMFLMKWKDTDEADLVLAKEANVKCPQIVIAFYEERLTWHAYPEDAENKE

Binder: SKAGDLLFIEKVPVVVLEDILATKPSIAS (peptide, UniProt Q9QWF0 210-238, looked up) [CAF1 p150(210–238)]
- Kd: 430 ± 100 nM
